The record followed here is patent US20250263490A1 (VIB VZW, published 2025).

Test [1] concerns the target T1, recombinant human domain 1-3His6 of the cation-independent mannose-6-phosphate receptor (human, UniProt P11717 41-467).
T1 construct: Biotinylated (NHS-PEG4-biotin) for BLI; Glycosylated; also called hDom1-3His6; hCI-M6PRD1-D3
The test is described as follows: BLI.

The target of test [2] is T2, mouse cation-independent mannose-6-phosphate receptor on cells (mouse, UniProt Q07113 36-2483).
T2 construct: whole, on cells; also called mouse CI-M6PR of bEND3 cells; mCI-M6PR
T2 sequence (Q07113 36-2483): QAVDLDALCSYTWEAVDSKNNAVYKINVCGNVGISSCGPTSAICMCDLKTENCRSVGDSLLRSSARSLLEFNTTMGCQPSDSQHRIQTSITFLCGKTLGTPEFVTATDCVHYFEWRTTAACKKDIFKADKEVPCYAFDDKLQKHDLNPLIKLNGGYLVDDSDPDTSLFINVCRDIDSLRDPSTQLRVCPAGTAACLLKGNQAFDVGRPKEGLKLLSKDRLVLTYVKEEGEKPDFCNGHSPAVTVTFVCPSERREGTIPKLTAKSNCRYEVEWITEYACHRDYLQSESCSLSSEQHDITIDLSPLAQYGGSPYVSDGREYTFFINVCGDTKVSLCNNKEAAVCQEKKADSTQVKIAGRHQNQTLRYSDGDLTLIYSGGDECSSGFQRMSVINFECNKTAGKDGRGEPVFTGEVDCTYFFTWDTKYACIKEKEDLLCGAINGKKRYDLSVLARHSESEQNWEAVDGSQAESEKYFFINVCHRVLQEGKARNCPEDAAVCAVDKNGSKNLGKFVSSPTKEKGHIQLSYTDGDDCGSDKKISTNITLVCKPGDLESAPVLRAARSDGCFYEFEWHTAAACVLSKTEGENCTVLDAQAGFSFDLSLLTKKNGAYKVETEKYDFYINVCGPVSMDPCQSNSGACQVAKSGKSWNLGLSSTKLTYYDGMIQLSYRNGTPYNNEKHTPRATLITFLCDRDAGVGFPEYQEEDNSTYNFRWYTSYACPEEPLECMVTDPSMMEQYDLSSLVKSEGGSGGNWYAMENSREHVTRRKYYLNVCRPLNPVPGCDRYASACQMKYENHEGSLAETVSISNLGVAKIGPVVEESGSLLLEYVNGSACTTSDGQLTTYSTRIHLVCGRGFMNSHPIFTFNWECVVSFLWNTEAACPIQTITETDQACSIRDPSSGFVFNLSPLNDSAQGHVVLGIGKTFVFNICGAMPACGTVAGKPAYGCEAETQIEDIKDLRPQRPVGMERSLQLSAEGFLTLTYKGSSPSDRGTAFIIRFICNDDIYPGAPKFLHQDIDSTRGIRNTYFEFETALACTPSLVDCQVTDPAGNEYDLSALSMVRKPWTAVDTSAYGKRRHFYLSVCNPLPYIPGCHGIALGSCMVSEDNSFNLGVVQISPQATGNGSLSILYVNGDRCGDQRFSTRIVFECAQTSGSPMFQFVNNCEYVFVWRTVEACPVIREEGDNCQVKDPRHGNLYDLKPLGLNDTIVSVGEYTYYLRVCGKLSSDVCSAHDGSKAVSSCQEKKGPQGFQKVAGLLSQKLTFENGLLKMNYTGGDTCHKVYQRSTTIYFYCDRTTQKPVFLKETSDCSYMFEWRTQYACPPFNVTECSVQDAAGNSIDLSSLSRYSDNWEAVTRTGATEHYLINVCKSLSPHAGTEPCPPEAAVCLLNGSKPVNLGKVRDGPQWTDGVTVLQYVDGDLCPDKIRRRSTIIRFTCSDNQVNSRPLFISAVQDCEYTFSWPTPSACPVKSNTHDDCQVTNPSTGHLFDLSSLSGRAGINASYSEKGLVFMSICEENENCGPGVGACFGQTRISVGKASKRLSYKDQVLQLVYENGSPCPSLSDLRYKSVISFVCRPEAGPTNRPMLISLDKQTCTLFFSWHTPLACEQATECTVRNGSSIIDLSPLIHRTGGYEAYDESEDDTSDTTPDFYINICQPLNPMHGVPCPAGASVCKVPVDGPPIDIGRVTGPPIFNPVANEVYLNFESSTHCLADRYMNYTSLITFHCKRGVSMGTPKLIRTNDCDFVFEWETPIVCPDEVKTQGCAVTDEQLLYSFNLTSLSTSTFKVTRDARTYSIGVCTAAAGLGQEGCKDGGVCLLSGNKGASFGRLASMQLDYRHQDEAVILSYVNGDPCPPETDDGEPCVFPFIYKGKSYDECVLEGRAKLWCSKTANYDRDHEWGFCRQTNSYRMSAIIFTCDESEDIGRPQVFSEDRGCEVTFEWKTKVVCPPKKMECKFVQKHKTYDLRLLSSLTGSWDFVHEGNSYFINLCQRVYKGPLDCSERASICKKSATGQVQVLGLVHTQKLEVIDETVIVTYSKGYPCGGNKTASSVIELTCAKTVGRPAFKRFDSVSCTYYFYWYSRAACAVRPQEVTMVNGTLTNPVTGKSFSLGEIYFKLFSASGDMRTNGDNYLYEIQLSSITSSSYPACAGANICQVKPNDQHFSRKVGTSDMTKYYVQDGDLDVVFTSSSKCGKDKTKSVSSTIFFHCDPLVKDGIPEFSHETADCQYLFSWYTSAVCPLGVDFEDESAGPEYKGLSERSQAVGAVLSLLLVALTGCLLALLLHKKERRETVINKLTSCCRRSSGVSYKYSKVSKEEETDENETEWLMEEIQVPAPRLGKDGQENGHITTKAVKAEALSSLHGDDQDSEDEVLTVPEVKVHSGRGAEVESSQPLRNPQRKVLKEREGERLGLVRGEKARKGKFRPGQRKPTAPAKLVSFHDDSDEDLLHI
The test is described as follows: flow cytometry, FLAG3-His6 VHH on mouse bEND3 cells. From the text: Synthetic DNA fragments encoding VHHs were ordered (IDT, Leuven, Belgium) and subcloned into an E. coli expression vector under control of an IPTG-inducible lac promoter, in frame with N-terminal PelB signal peptide (which directs the recombinant proteins to the periplasmic compartment) and C-terminal FLAG3 and His6 tags. […] VHH proteins were purified from these clones by means of IMAC chromatography followed by desalting according to well established procedures¹⁰⁶. Cells used herein were recovered using cell dissociation non-enzymatic solution (Sigma Aldrich, cat. #C5914-100ML) and resuspended to a final concentration of 1,000,000 cells/mL in FACS buffer. Cells were incubated with different concentrations of purified FLAG3-tagged VHHs for 30 minutes on ice with shaking, followed by washing and incubation with mouse M2 anti-Flag mAb (Sigma Aldrich, cat. #F-1804) in FACS buffer for 30 min on ice with shaking, followed again by washing. […] Flow cytometry and analysis were done on an Attune NxT Flow Cytometer (Thermo Fisher Scientific).
Moreover, cross-reactivity to mouse CI-M6PR was analyzed, in view of the amino acid homology between mouse and human being overall about 80% identity, but for domain 1-3 of CI-M6PR just about 75% identity.

For test [3], the target named is T1, recombinant human domain 1-3His6 of the …. The test is described as follows: BLI exp 2, dissoc pH not printed (between 6 and 5, presumably 5.5). The method, then:
For each of the 11 anti-CI-M6PR VHHs, a biolayer interferometry (BLI) experiment was performed in which the hDom₁₋₃His₆ was biotinylated and coupled to streptavidin biosensor tips. Afterwards, the tips were incubated with serially diluted VHHs during the association phase and dissociation was performed at pH 7.4. Similarly, dissociation was performed at pH 7.0, pH 6.0 and pH 5.0 as well after regeneration of the biosensor tips. […] The anti-CI-M6PR antibody (clone 2G11) and GBP were used as positive and negative controls, respectively.
Analysis of the binding kinetics was performed using an Octet Red96 (FortéBio) device with Streptavidin SA Biosensor tips (VWR, 733-2145). To this end, 1 mL of hCI-M6PR_D1-D3 (0.5 mg/mL in 50 mM MES, 150 mM NaCl, pH 6.5) was incubated at room temperature for 30 minutes with a two-fold molar excesses of EZ-Link™ NHS-PEG₄-Biotin (Thermo Fischer, A39259) and NaHCO₃ (100 mM, pH 8.3). Biotinylated hCIMPR_D1-D3 was purified using a Zeba spin desalting column (Thermo Fischer, 89890) and protein concentration was calculated by measuring the absorbance at 280 nm (extinction coefficient 50320 M¹ cm⁻¹). Two-fold biotin-labelled antigen was loaded on the tips (2.5 μg/mL) and subsequently dipped into a particular anti-CI-M6PR VHH-containing solution (ranging from 0-100 nM). […]

Test [4] shares this target. The test is described as follows: BLI exp 2, dissoc pH not printed (between 7 and 6, presumably 6.5); pH not given; row between pH 7 and pH 6 (6.5 in the VHH1, VHH7 and VHH8 blocks).
Test [5] has the same target. The test is described as follows: BLI at pH 7.4, 2nd of 2 repeats; BLI, biotinylated hDom1-3His6 on streptavidin tips, pH 7.4, experiment 2.
The target is the same in test [6]. The test is described as follows: BLI, dissoc pH 5, mean of local fits. The method, then: FIGS. 58 & 59. […] BLI was performed on an Octet Red96 (FortéBio) instrument in kinetics buffer (0.2 M Na₂HPO₄, 0.1 M Na⁺ citrate, 0.01% bovine serum albumin, 0.002% Tween-20). Biotinylated human domain₁₋₃His₆ was immobilized on Streptavidin SA biosensors (Sartorius) to a signal of 0.6 nm. […] Between assays, biosensors were regenerated by three times 10 s exposure to regeneration buffer (10 mM glycine pH 3). The degree of association and dissociation was measured in δ nm over time (s).
After loading, the tips were incubated with VHHs serially diluted in pH 7.4 kinetic buffer during the association phase and dissociation was performed at pH 7.4, pH 6.5, pH 6.0, pH 5.5 and pH 5.0. All biosensor tips were then regenerated before analysis of the subsequent VHH. Table 13 summarizes the kinetic parameters retrieved after processing and curve fitting of the BLI measurements. When both association and dissociation were performed at pH 7.4, a global fit was performed according to the 1:1 binding model of which the resulting affinity constants (KD), association (kₒₙ) and dissociation rate constants (koff) are shown. For measurements with association at pH 7.4 and dissociation at pH 6.5, 6.0, 5.5 and 5.0, the depicted dissociation rate constants are an average of the parameters determined by local curve fitting of the dissociation of 200, 100 and 50 nM VHH.

B1: anti-CI-M6PR VHH7 (VHH)
VHH: QVQLQESGGGLVQPGGSLRLSCAASGIIFSDNRMDWYRQAPGKQREWVATLASYGWKTYADSVKGRFTISRDNTKNTVYLRMNSLKPEDTAVYYCKASSPVLNDIWGQGTQVTVSS
notes: His6-tagged (Pichia pastoris)
Turning to B1, the “fold higher dissociation rate at pH 6.0 versus pH 7.4” value in test [1] was 5 fold. Also, in test [2], the EC50 was approximately 8.5 nM.

B2: anti-CI-M6PR VHH5 (VHH)
VHH: QVQLQESGGGLVQAGGSLKLSCAAAGRTFSRLAMGWFRQAPGKEREFVAAISENGDSIHYSDSVKGRFAVSRDNAKNTVYLQMNSLKPEDTAIYYCAADRAAYYCSGSGCYPSRAPAAASYDYWGQGTQVTVSS
notes: His6-tagged; made in Pichia pastoris, later also in E. coli WK6
Turning to B2, in test [3], the koff came out at 0.00062 s⁻¹ and the on-rate (kon) is 2.1e+06 M⁻¹ s⁻¹. For the same molecule, the kon in test [4] was 1.3e+06 M⁻¹ s⁻¹.

B3: anti-CI-M6PR VHH4 (VHH)
VHH: QVQLQESGGGLVQAGGSLRLSCAASGRTFSNYVMGWFRQAPGKEREFVGSISQGGKMTYYPDSVKGRFTISRDNAKNTMYLQMDGLKPEDTAVYYCAVSRGYPMVRVSEVDYWGQGTQVTVSS
notes: His6-tagged; made in Pichia pastoris
Consider B3, for which, in test [5], the Kd was 2.34 nM and the kon was 571000 M⁻¹ s⁻¹.

B4: anti-CI-M6PR VHH 1H11 (VHH)
VHH: QVQLQESGGGLVQPGGSLRLSCAASGIIFSDNRMDWYRQAPGKQREWVATLASYGWKTYADSVKDRFTISRDNAKNTVNLYMNSLQPEDTAVYYCNSGQYWGQGTQVTVSS
notes: made in E. coli WK6, His-tag purified
With B4, the koff in test [6] worked out at 0.0083 s⁻¹.
